# Measured values as given in patent US20220348658A1, “ANTI-T CELL ANTIGEN-BINDING MOLECULE TO BE USED IN COMBINATION WITH CYTOKINE INHIBITOR” (Chugai Seiyaku Kabushiki Kaisha, priority 2019, published 2022).
# B1: GC33/2C11: ERY974 surrogate antibody; GPC3-side chains SEQ ID NO: 443/444, CD3-side chains SEQ ID NO: 445/446 (protein)
# chain 1: QVQLVQSGAEVKKPGASVKVSCKASGYTFTDYEMHWIRQPPGQGLEWIGAIDPKTGDTAYSQKFKGRVTLTADKSTSTAYMELSSLTSEDTAVYYCTRFYSYTYWGQGTLVTVSSAKTTPPSVYPLAPGSAAQTNSMVTLGCLVKGYFPEPVTVTWNSGSLSSGVHTFPAVLQSDLYTLSSSVTVPSSTWPSETVTCNVAHPASSTKVDKKIVPRDCGCKPCICTVKEVSKVFIFPPKPKDVLTITLTPKVTCVVVDISKDDPEVQFSWFVDDVEVHTAQTQPREEQFNSTFRSVSELPIMHQDWLNGKEFKCRVNSAAFPAPIEKTISKTKGRPKAPQVYTIPPPKEQMAKDKVSLTCMITDFFPEDITVEWQWNGQPAENYKNTQPIMDTDGSYFVYSELNVQKSNWEAGNTFTCSVLHEGLHNHHTEKSLSHSPGK
# chain 2: DIVMTQSPLSLPVTPGEPASISCRSSQSLVHSNRNTYLHWYQQKPGQAPRLLIYKVSNRFSGVPDRFSGSGSGTDFTLKISRVEAEDVGVYYCSQNTHVPPTFGQGTKLEIKRADAAPTVSIFPPSSEQLTSGGASVVCFLNNFYPKDINVKWKIDGSERQNGVLNSWTDQDSKDSTYSMSSTLTLTKDEYERHNSYTCEATHKTSTSPIVKSFNRNEC
# chain 3: EVQLVESGGGLVQPGKSLKLSCEASGFTFSGYGMHWVRQAPGRGLESVAYITSSSINIKYADAVKGRFTVSRDNAKNLLFLQMNILKSEDTAMYYCARFDWDKNYWGQGTMVTVSSAKTTPPSVYPLAPGSAAQTNSMVTLGCLVKGYFPEPVTVTWNSGSLSSGVHTFPAVLQSDLYTLSSSVTVPSSTWPSETVTCNVAHPASSTKVDKKIVPRDCGCKPCICTVKEVSKVFIFPPKPKDVLTITLTPKVTCVVVDISKDDPEVQFSWFVDDVEVHTAQTQPREEQFNSTFRSVSELPIMHQDWLNGKEFKCRVNSAAFPAPIEKTISKTKGRPKAPQVYTIPPPKEQMAKDKVSLTCMITDFFPEDITVEWQWNGQPAENYKNTQPIMRTDGSYFVYSKLNVQKSNWEAGNTFTCSVLHEGLHNHHTEKSLSHSPGK
# chain 4: DIQMTQSPSSLPASLGDRVTINCQASQDISNYLNWYQQKPGKAPKLLIYYTNKLADGVPSRFSGSGSGRDSSFTISSLESEDIGSYYCQQYYNYPWTFGPGTKLEIKRADAAPTVSIFPPSSEQLTSGGASVVCFLNNFYPKDINVKWKIDGSERQNGVLNSWTDQDSKDSTYSMSSTLTLTKDEYERHNSYTCEATHKTSTSPIVKSFNRNEC
# modifications: H0000-mF18mN4; GL4-mk1; 2C11VH-mF18mP4; 2C11VL-mk1
# Legend:
# [1] = tested on: Hepa1-6/hGPC3 cancer cells; assay: Syngeneic mouse model: post-administration of MR-16-1 and drug efficacy of GC33/2C11; format: in vivo, C57BL/6 mice
# Experimental: In a study using a syngeneic mouse model, a study for evaluating the effect of post-administration of an anti-mouse IL6 receptor antibody, MR-16-1, on the drug efficacy of ERY974 surrogate antibodies was carried out as follows. Hepa1-6/hGPC3 cancer cells, which are mouse cancer cell line Hepa1-6 made to highly express human GPC3, were transplanted subcutaneously in C57BL/6 mice. The day of transplantation was set to day 0. On day 16, grouping was performed according to tumor size and body weight. On day 17, GC33/2C11 was first administered into the tail vein at 0.2 or 5 mg/kg, and two hours later, MR-16-1 was administered into the tail vein at 30 mg/kg. MR-16-1 was administered six times in total (on days 17, 21, 24, 28, 31, and day 35). GC33/2C11 was administered once, only on day 17.
# [2] = tested on: Hepa1-6/hGPC3 cancer cells; assay: Syngeneic mouse model: pre-administration of MR-16-1 and drug efficacy of GC33/2C11; format: in vivo, C57BL/6 mice
# Experimental: In a test using a syngeneic mouse model, a study for evaluating the effect of pre-administration of an anti-mouse IL6 receptor antibody, MR-16-1 (see Okazaki M, et al., Characterization of anti-mouse interleukin-6 receptor antibody, Immunol Lett. 2002 Dec. 3; 84(3):231-40; and Saito T, et al., Preparation of soluble murine IL-6 receptor and anti-murine IL-6 receptor antibodies, J. Immunol., 47 (1991), pp. 168-173), on the drug efficacy of ERY974 surrogate antibodies was carried out as follows. Hepa1-6/hGPC3 cancer cells, which are mouse cancer cell line Hepa1-6 made to highly express human GPC3, were transplanted subcutaneously in C57BL/6 mice. The day of transplantation was set to day 0. On day 18, grouping was performed according to tumor size and body weight. MR-16-1 was administered into the tail vein at 30 mg/kg on day 18. On day 19, the day after MR-16-1 administration, GC33/2C11 was administered into the tail vein at 0.2 and 5 mg/kg. MR-16-1 was administered six times in total (on days 18, 21, 25, 28, 32 and day 35). GC33/2C11 was administered once, only on day 19. GC33/2C11 was an antibody comprising the amino acid sequence of SEQ ID NO: 443 as the GPC3-side heavy chain, the amino acid sequence of SEQ ID NO: 444 as the GPC3-side light chain, the amino acid sequence of SEQ ID NO: 445 as the CD3-side heavy chain, and the amino acid sequence of SEQ ID NO: 446 as the CD3-side light chain.
molecule,measurement,setting,value
B1,Antitumor activity (%),"[1]; Group 2: GC33/2C11 0.2 mg/kg tail vein, day 17, alone",102%
same,Antitumor activity (%),"[1]; Group 3: GC33/2C11 5 mg/kg tail vein, day 17, alone",109%
same,Antitumor activity (%),"[1]; Group 5: GC33/2C11 0.2 mg/kg day 17, 2 hours before MR-16-1 (30 then 15 mg/kg, day 17, 21, 24, 28, 31, 35)",103%
same,Antitumor activity (%),"[1]; Group 6: 5 mg/kg day 17, 2 hours before MR-16-1 (30 then 15 mg/kg, day 17, 21, 24, 28, 31, 35)",109%
same,Antitumor activity (%),"[2]; Group 2: GC33/2C11 0.2 mg/kg tail vein, day 19, alone",80%
same,Antitumor activity (%),"[2]; Group 3: GC33/2C11 5 mg/kg tail vein, day 19, alone",110%
same,Antitumor activity (%),"[2]; Group 5: GC33/2C11 0.2 mg/kg day 19 after pre-administration of MR-16-1 (30 then 15 mg/kg, day 18, 21, 25, 28, 32, 35)",99%
same,Antitumor activity (%),"[2]; Group 6: 5 mg/kg day 19 after pre-administration of MR-16-1 (30 then 15 mg/kg, day 18, 21, 25, 28, 32, 35)",107%
